What was measured:
[1] = tested on: cultured, non-adherent mouse neurospheres; assay: Intracellular ATP assay, proliferation of cultured mouse neurospheres; format: cell-based; conditions: growth media supplemented with B27; 1 nM-0.0005 nM; 3 days of treatment; FIG. 1
Description: The anterior lateral wall of the lateral ventricle of 5-6 week old mice was enzymatically dissociated in 0.8 mg/ml hyaluronidase and 0.5 mg/ml trypsin in DMEM containing 4.5 mg/ml glucose and 80 units/ml DNase at 37° C. for 20 min. The cells were gently triturated and mixed with three volumes of Neurosphere medium (DMEM/F12, B27 supplement, 125 mM HEPES pH 7.4) containing 20 ng/ml EGF (unless otherwise stated), 100 units/ml penicillin and 100 μg/ml streptomycin. After passing through a 70 μm strainer, the cells were pelleted at 160×g for 5 min. The supernatant was subsequently removed and the cells resuspended in Neurosphere medium supplemented as above, plated out in culture dishes and incubated at 37° C. Neurospheres were ready to be split approximately 7 days after plating.
To split the neurospheres, cells were collected by centrifugation at 160×g for 5 min. The conditioned supernatant (conditioned medium) was removed and saved. The neurospheres were resuspended in 0.5 ml Trypsin/EDTA in HBSS (1×), incubated at 37° C. for 2 min and triturated gently to aid dissociation. Following a further 3 min incubation at 37° C. and trituration, 3 volumes of ice cold Neurosphere medium medium w/o EGF were added to stop further trypsin activity. […]
After 3 days of treatment, intracelluar ATP was measured using the ATP SL kit (Biothema) according to the manufacturer's instructions.

MPTP-lesioned mice = assay: MPTP-induced neuronal loss in substantia nigra pars compacta, intraventricular infusion; format: in vivo, mouse; conditions: for Total number of tyrosine hydroxylase neurons in the bilateral substantia nigra pars compacta: PDGF-BB intraventricularly 0.1 μg/h/kg for three days, two months later, Mean ± S.E.M
Description: Ten-week old male C57B1/6 mice (25 g, B&K Universal, Stockholm, Sweden).
PDGF-BB (Sigma) was administered directly into the right lateral ventricle of the brain using osmotic pumps (Alza 1003D, delivery of 1.0 μl/h for three days) and brain infusion kits. The drug solution was prepared as follows: 10 μg PDGF-BB was dissolved in 10 μl 1M HAc, after which pH was adjusted to 7.4 by adding 10 μl NaOH. A buffer was added (100 ml 0.01M PBS containing 5 mg/ml BSA and 20 mM Hepes) to a final volume of 4,000 μl. Each minipump was connected to a brain infusion needle, which was stereotaxically placed in the right lateral ventricle of the mouse brain in deeply anesthetized mice (chloral hydrate 60 mg/kg intraperitoneal). The pump was placed subcutaneously in the neck. The delivery rate of PDGF-BB was 0.1 μg/h/kg body weight. ^3H-thymidine (6.7 Ci/ml, NEN) was given for three days via another Alzet pump which was placed intraperitoneally.
One hour after the pumps were inserted, the neurotoxin 1-methyl-4-phenyl-1,2,3,6-tetrahydropyridine (MPTP HCl, Sigma) was given subcutaneously (40 mg/kg).
Two months later, animals were anesthetized with choral hydrate (60 mg/kg ip) and sacrificed by intracardial infusion of fixative (4% paraformaldehyde in 0.1 M phosphate buffered saline (PBS) containing 0.4% picric acid. After dissection, postfixation in the same fixative continued for 1.5 h followed by cryoprotection. After dissection of the midbrain, the two sides of the brain were separated with a cut along the ventro-dorsal midline and the tissue was postfixed in the same solution and cryoprotected in sucrose. Cryostat sections were prepared as follows: a randomly chosen half-brain was cut into 40 μm thick sections through the full rostro-caudal extension of substantia nigra pars compacta. A randomly chosen series of every 6th section was taken to perform free-floating immunohistochemistry using a polyclonal anti-tyrosine hydroxylase antibody (diluted 1:400, Pel-Freez) in order to identify dopaminergic neurons in the tissue. To visualize the antibody, the avidin-biotin peroxidase kit (Vector) with 0.03% DAB as chromagen was used adding 0.01% H2O2. Cresyl violet was employed to identify the nucleolus, Nissl substance and glia cells (Chan et al., 1997; Walters et al., 1999). The other half of the brain was sectioned in 10 μm thick sections on glass and a randomly chosen series of every 6th section was immunohistochemically stained for tyrosine hydroxylase in dopaminergic neurons as previously described. To detect incorporation of the ^3H-thymidine nucleotide in brain cells, the sampled slides were dipped in NTB2 nuclear track emulsion (Kodak) and stored in light-tight boxes at −20° C. for four weeks. […]

B1: PDGF-BB: human recombinant PDGF-BB, platelet derived growth factor B-chain homodimer (protein)
chain: SLGSLTIAEPAMIAECKTRTEVFEISRRLIDRTNANFLVWPPCVEVQRCSGCCNNRNVQCRPTQVQLRPVQVRKIEIVRKKPIFKKATVTLEDHLACKCETVAAARPVT
- proliferative effect (intracellular ATP) [1]: concentration dependent proliferative effect
- cell number in the substantia nigra (MPTP-lesioned mice; MPTP lesioned mice after infusion of PDGF): double
- Total number of tyrosine hydroxylase neurons in the bilateral substantia nigra pars compacta (MPTP-lesioned mice; MPTP-lesioned (40 mg/kg s.c.)): 10,000 ± 200
- MPTP-induced loss of tyrosine hydroxylase positive nerve cells (MPTP-lesioned mice; after an MPTP lesion): completely counteracted
- Total number of tyrosine hydroxylase neurons in the bilateral substantia nigra pars compacta (MPTP-lesioned mice; no MPTP lesion): 12,300 ± 300

— patent US7981863B2, “Treatment of Parkinson's disease with PDGF” (Neuronova AB, priority 2001, dated 2011)
